This is an account of results in article PMC8020760, “Assembly of a dsRNA synthesizing complex: RNA-DEPENDENT RNA POLYMERASE 2 contacts the largest subunit of NUCLEAR RNA POLYMERASE IV” (Proceedings of the National Academy of Sciences of the …, 2021).

Assay [1] addresses T1, recombinant NRPD1 fused at its C terminus to a FLAG epitope tag (A. thaliana, UniProt Q9LQ02 1-1453).
T1 construct: NRPD1 open reading frame, A. thaliana, codon optimized synthetic gene; full-length NRPD1 is 1,453 amino acids; More in SI Appendix, Methods; also called FLAG-tagged NRPD1; not shown: FLAG, C-terminal, kept
T1 sequence (looked up): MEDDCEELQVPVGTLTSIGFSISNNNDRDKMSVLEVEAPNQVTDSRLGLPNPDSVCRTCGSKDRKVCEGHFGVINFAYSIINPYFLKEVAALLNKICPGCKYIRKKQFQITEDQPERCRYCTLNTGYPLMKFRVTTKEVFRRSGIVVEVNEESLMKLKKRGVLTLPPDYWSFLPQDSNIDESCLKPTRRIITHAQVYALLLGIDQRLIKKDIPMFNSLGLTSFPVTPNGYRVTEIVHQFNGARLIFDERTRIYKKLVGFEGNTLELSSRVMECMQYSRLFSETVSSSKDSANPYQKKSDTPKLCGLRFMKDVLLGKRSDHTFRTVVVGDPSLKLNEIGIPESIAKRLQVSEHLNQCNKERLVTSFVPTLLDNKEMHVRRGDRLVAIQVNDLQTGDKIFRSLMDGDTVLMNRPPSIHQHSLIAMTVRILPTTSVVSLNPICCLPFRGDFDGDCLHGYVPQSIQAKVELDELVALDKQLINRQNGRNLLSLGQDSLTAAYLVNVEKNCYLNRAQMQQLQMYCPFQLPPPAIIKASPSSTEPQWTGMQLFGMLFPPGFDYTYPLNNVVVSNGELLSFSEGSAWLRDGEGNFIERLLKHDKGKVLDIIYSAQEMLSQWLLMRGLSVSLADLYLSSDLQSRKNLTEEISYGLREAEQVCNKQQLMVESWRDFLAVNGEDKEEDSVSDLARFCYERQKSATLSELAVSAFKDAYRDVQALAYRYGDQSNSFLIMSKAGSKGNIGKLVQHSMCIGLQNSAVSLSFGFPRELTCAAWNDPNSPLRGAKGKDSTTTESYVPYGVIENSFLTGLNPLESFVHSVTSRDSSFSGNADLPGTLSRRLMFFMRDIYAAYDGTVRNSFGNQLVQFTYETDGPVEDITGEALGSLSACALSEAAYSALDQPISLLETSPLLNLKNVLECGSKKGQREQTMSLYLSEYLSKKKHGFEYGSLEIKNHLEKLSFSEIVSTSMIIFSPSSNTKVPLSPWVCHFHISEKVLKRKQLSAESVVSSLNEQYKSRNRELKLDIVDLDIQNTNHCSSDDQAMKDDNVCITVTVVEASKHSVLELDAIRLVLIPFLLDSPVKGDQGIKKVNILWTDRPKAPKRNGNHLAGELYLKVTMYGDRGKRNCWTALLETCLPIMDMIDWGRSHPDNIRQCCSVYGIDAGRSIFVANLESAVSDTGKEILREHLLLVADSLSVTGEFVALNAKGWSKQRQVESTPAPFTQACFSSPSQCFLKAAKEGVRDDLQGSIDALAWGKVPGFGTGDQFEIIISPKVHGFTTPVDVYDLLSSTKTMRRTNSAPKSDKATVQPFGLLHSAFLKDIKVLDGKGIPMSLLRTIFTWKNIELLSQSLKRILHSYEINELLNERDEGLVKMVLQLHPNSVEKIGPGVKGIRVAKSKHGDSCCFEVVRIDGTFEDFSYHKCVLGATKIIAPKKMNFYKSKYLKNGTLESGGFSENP
As to the kind of experiment: co-IP; purified recombinant proteins, 0.25 µM each, 30 min, room temperature, 50 mM Hepes-KOH pH 7.5, 150 mM NaCl; IP with resin against the tag of one or the other partner (anti-FLAG, anti-V5 or anti-HA); immunoblot. Particulars: both partners purified. (Immunoblotting shows a protein as a band on a membrane.)

The target of assay [2] is T2, NRPD1-FLAG of plant Pol IV, as the band of about 165 kDa resolved by SDS-PAGE (A. thaliana, UniProt Q9LQ02 1-1453).
T2 construct: NRPD1, largest catalytic subunit of Pol IV, A. thaliana; full-length NRPD1 is 1,453 amino acids; The band is assigned to NRPD1 by its size only; also called largest Pol IV subunit
T2 sequence (looked up): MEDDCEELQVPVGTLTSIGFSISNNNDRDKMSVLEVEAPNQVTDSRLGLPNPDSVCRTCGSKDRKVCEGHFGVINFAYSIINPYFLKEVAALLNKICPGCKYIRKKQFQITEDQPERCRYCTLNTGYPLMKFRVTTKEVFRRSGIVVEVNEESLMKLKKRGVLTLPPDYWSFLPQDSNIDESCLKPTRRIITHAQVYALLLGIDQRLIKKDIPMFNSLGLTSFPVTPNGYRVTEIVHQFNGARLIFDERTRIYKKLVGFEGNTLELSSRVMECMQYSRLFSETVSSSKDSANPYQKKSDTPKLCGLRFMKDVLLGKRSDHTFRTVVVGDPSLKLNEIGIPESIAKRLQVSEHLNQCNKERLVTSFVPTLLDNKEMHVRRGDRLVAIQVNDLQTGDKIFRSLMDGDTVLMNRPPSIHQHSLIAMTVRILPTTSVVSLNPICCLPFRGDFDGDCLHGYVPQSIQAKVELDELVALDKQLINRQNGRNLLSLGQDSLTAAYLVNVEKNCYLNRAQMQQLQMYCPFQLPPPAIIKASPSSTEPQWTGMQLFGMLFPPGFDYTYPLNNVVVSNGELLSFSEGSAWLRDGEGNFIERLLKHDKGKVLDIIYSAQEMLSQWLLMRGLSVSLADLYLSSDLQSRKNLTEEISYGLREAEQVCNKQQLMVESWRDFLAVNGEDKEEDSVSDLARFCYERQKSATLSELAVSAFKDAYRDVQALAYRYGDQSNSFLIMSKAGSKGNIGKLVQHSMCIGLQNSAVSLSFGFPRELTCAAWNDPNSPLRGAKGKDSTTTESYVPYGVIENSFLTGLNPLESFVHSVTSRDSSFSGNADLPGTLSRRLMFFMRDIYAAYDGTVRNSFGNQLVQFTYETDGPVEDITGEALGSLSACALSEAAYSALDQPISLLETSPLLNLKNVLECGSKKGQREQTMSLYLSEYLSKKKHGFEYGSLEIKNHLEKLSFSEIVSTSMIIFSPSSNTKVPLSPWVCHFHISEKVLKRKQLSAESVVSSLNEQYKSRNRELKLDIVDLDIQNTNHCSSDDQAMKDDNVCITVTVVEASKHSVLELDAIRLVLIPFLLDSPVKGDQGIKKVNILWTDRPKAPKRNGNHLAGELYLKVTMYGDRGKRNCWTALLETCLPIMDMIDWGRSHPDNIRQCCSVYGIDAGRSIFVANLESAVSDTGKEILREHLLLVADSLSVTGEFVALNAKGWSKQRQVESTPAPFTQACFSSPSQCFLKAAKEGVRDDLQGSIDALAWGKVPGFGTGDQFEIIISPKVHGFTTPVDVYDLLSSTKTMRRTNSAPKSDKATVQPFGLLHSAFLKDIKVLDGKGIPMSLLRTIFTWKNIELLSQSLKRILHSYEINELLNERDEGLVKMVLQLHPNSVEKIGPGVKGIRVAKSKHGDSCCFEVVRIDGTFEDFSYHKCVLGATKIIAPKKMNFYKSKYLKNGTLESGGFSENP
The experiment in a line: far-Western, overlay or dot blot; far-Western: affinity-purified FLAG-tagged Pol II, Pol IV and Pol V resolved by SDS-PAGE, electroblotted to nitrocellulose, incubated with recombinant V5-tagged RDR2, detected with anti-V5-HRP. Particulars: both partners purified.

B1: recombinant RNA-DEPENDENT RNA POLYMERASE 2 (RDR2), wild type, with N-terminal V5 epitope and 6xHis tags (enzyme, A. thaliana, UniProt O82504 1-1133, looked up)
chain: MVSETTTNRSTVKISNVPQTIVADELLRFLELHLGEDTVFALEIPTTRDNWKPRDFARVQFTTLEVKSRAQLLSSQSKLLFKTHNLRLSEAYDDIIPRPVDPRKRLDDIVLTVGFPESDEKRFCALEKWDGVRCWILTEKRRVEFWVWESGDCYKIEVRFEDIIETLSCCVNGDASEIDAFLLKLKYGPKVFKRVTVHIATKFKSDRYRFCKEDFDFMWIRTTDFSGSKSIGTSTCFCLEVHNGSTMLDIFSGLPYYREDTLSLTYVDGKTFASAAQIVPLLNAAILGLEFPYEILFQLNALVHAQKISLFAASDMELIKILRGMSLETALVILKKLHQQSSICYDPVFFVKTQMQSVVKKMKHSPASAYKRLTEQNIMSCQRAYVTPSKIYLLGPELETANYVVKNFAEHVSDFMRVTFVEEDWSKLPANALSVNSKEGYFVKPSRTNIYNRVLSILGEGITVGPKRFEFLAFSASQLRGNSVWMFASNEKVKAEDIREWMGCFRKIRSISKCAARMGQLFSASRQTLIVRAQDVEQIPDIEVTTDGADYCFSDGIGKISLAFAKQVAQKCGLSHVPSAFQIRYGGYKGVIAVDRSSFRKLSLRDSMLKFDSNNRMLNVTRWTESMPCFLNREIICLLSTLGIEDAMFEAMQAVHLSMLGNMLEDRDAALNVLQKLSGENSKNLLVKMLLQGYAPSSEPYLSMMLRVHHESQLSELKSRCRILVPKGRILIGCMDEMGILEYGQVYVRVTLTKAELKSRDQSYFRKIDEETSVVIGKVVVTKNPCLHPGDIRVLDAIYEVHFEEKGYLDCIIFPQKGERPHPNECSGGDLDGDQFFVSWDEKIIPSEMDPPMDYAGSRPRLMDHDVTLEEIHKFFVDYMISDTLGVISTAHLVHADRDPEKARSQKCLELANLHSRAVDFAKTGAPAEMPYALKPREFPDFLERFEKPTYISESVFGKLYRAVKSSLAQRKPEAESEDTVAYDVTLEEAGFESFIETAKAHRDMYGEKLTSLMIYYGAANEEEILTGILKTKEMYLARDNRRYGDMKDRITLSVKDLHKEAMGWFEKSCEDEQQKKKLASAWYYVTYNPNHRDEKLTFLSFPWIVGDVLLDIKAENAQRQSVEEKTSGLVSI
Take B1: the binding result in assay [1] and in assay [2] was “binds” each time.
